± gives the uncertainty stated by the source.
Assay: protein stability index of a GFP-peptide fusion (yeast GPS) (PSI 1-4); higher = more stable; sorted into four equal gates, so the index is relative within each strain
In short: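 For each peptide, the protein stability index sums the read frequency in every gate after multiplying it by the gate number. Read frequencies came from plasmids that were PCR-amplified from each gate and Illumina-sequenced, with reads assigned to strains by barcodes. The gates were four equal bins of GFP/Cherry fluorescence ratio applied to mid-log yeast in leucine-free medium carrying a pooled library of tiled 17-residue yeast protein peptides fused downstream of GFP on a Cherry-expressing plasmid.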

## CLTGTVAARMFHILLKL [ECM29]
doa10∆
  protein stability index: 2.42 ± 0.093
pdr5∆
  protein stability index: 2.03 ± 0.096
san1∆
  protein stability index: 2.74 ± 0.058
ubr1∆
  protein stability index: 2.44 ± 0.069

## YMHDTELNYFVGCKNLE [GRR1]
doa10∆
  protein stability index: 2.92 ± 0.085
pdr5∆
  protein stability index: 2.78 ± 0.081
san1∆
  protein stability index: 3.08 ± 0.079
ubr1∆
  protein stability index: 3.21 ± 0.046

## HKVTQKKDIKIGTNDLF [SIR4]
doa10∆
  protein stability index: 2.63 ± 0.12
pdr5∆
  protein stability index: 2.61 ± 0.11
san1∆
  protein stability index: 2.7 ± 0.072
ubr1∆
  protein stability index: 2.27 ± 0.13

## TDDADDHINWEHIKQDY [NSL1]
doa10∆
  protein stability index: 3.4 ± 0.1
pdr5∆
  protein stability index: 3.4 ± 0.12
san1∆
  protein stability index: 3.27 ± 0.13
ubr1∆
  protein stability index: 3.4 ± 0.082

## PTTMVTNQKDTNDHVDK [ISW2]
doa10∆
  protein stability index: 1.96 ± 0.062
pdr5∆
  protein stability index: 2.03 ± 0.064
san1∆
  protein stability index: 1.67 ± 0.1
ubr1∆
  protein stability index: 1.75 ± 0.055

## TNAGYTIELAGGGYFSA [FAS1]
doa10∆
  protein stability index: 2.39 ± 0.078
pdr5∆
  protein stability index: 2.28 ± 0.088
san1∆
  protein stability index: 1.72 ± 0.11
ubr1∆
  protein stability index: 2.09 ± 0.068

## IHKIQNDNNLKKLESQE [RPN5]
doa10∆
  protein stability index: 3.08 ± 0.2
pdr5∆
  protein stability index: 3 ± 0.17
san1∆
  protein stability index: 2.85 ± 0.11

## TYNMIDAAAEKRNGDEV [ARP7]
doa10∆
  protein stability index: 2.85 ± 0.066
pdr5∆
  protein stability index: 3.03 ± 0.07
san1∆
  protein stability index: 3.13 ± 0.055
ubr1∆
  protein stability index: 3.18 ± 0.044

## GAVSLNPSITRLEEESS [RRP4]
doa10∆
  protein stability index: 3 ± 0.2
pdr5∆
  protein stability index: 3.03 ± 0.14
san1∆
  protein stability index: 3.07 ± 0.1
ubr1∆
  protein stability index: 2.35 ± 0.08

## TNIRRIIQDNISPRLVV [RRP46]
doa10∆
  protein stability index: 1.58 ± 0.037
pdr5∆
  protein stability index: 1.69 ± 0.041
san1∆
  protein stability index: 1.75 ± 0.07
ubr1∆
  protein stability index: 1.82 ± 0.03

## EDPVTVEYLTRYVAGVQ [PRE6]
doa10∆
  protein stability index: 2.39 ± 0.058
pdr5∆
  protein stability index: 2.39 ± 0.07
san1∆
  protein stability index: 2.54 ± 0.051
ubr1∆
  protein stability index: 2.54 ± 0.067

## ITFLIEKAKEMIRLLGS [ECM29]
doa10∆
  protein stability index: 2.6 ± 0.12
pdr5∆
  protein stability index: 2.26 ± 0.1
san1∆
  protein stability index: 2.9 ± 0.11
ubr1∆
  protein stability index: 1.7 ± 0.12

## SSTQDVILRKISMLVTQ [CSI1]
doa10∆
  protein stability index: 1.62 ± 0.054
pdr5∆
  protein stability index: 1.75 ± 0.054
san1∆
  protein stability index: 1.91 ± 0.085
ubr1∆
  protein stability index: 1.77 ± 0.041

## NGKDSEIMYTGVSISVS [SMC3]
doa10∆
  protein stability index: 3.29 ± 0.22
pdr5∆
  protein stability index: 2.87 ± 0.21
san1∆
  protein stability index: 2.83 ± 0.1
ubr1∆
  protein stability index: 2.29 ± 0.17

## DVKKRTYEAIDVPGREL [RPB2]
doa10∆
  protein stability index: 1.99 ± 0.15
pdr5∆
  protein stability index: 3.35 ± 0.16
san1∆
  protein stability index: 2.62 ± 0.23
ubr1∆
  protein stability index: 3.57 ± 0.17

## TKVLNMKPSEILSLIEE [SMC2]
doa10∆
  protein stability index: 2.86 ± 0.23
pdr5∆
  protein stability index: 3.3 ± 0.17
san1∆
  protein stability index: 3 ± 0.24
ubr1∆
  protein stability index: 2.9 ± 0.11

## HIHDLEKFSPKSFISKL [SRP54]
doa10∆
  protein stability index: 1.81 ± 0.044
pdr5∆
  protein stability index: 2.12 ± 0.042
san1∆
  protein stability index: 2.14 ± 0.064
ubr1∆
  protein stability index: 2.36 ± 0.028

## IRFRIEREVFVDVKPKS [RPC25]
doa10∆
  protein stability index: 2.13 ± 0.12
pdr5∆
  protein stability index: 2.66 ± 0.16
san1∆
  protein stability index: 2.16 ± 0.13
ubr1∆
  protein stability index: 2.12 ± 0.25

## KQIDIPNFNVEIMQQKF [ECM29]
doa10∆
  protein stability index: 2.4 ± 0.25
pdr5∆
  protein stability index: 2.5 ± 0.16
san1∆
  protein stability index: 3.03 ± 0.11
ubr1∆
  protein stability index: 3.11 ± 0.097

## SEPLTLKVLSEHLDCMN [PCI8]
doa10∆
  protein stability index: 1.91 ± 0.064
pdr5∆
  protein stability index: 2.29 ± 0.065
san1∆
  protein stability index: 2.73 ± 0.055
ubr1∆
  protein stability index: 1.93 ± 0.058

## IADKTTYDKETITDLIE [SIR4]
doa10∆
  protein stability index: 3.3 ± 0.063
pdr5∆
  protein stability index: 3.33 ± 0.064
san1∆
  protein stability index: 3.42 ± 0.051
ubr1∆
  protein stability index: 3.27 ± 0.05

## INSGLYSVLLESPLSVA [YML103C/NUP188]
doa10∆
  protein stability index: 1.47 ± 0.058
pdr5∆
  protein stability index: 1.18 ± 0.066
san1∆
  protein stability index: 1.15 ± 0.18
ubr1∆
  protein stability index: 1.14 ± 0.053

## GELVLDIEVPDVNALKF [SNF12]
doa10∆
  protein stability index: 3.06 ± 0.22
pdr5∆
  protein stability index: 3.55 ± 0.12
san1∆
  protein stability index: 2.77 ± 0.077
ubr1∆
  protein stability index: 3.15 ± 0.11

## DSNYKWDLSVEDALYLG [PRE2]
doa10∆
  protein stability index: 3.34 ± 0.085
pdr5∆
  protein stability index: 3.35 ± 0.082
san1∆
  protein stability index: 3.33 ± 0.07
ubr1∆
  protein stability index: 3.39 ± 0.049

## LYKFQNFQDLSYLSETL [YML103C/NUP188]
doa10∆
  protein stability index: 2.94 ± 0.091
pdr5∆
  protein stability index: 2.87 ± 0.08
san1∆
  protein stability index: 2.64 ± 0.12
ubr1∆
  protein stability index: 2.49 ± 0.11

## VIVELLPQSEWKAPSSI [DIS3]
doa10∆
  protein stability index: 2.79 ± 0.071
pdr5∆
  protein stability index: 2.57 ± 0.062
san1∆
  protein stability index: 2.02 ± 0.062
ubr1∆
  protein stability index: 2.1 ± 0.048
